Source: US20130122566A1, “NOVEL ENZYME PROTEIN, PROCESS FOR PRODUCTION OF THE ENZYME PROTEIN THE SAME, AND GENE ENCODING THE ENZYME PROTEIN THE SAME” (JAPAN TOBACCO INC., priority 2010, published 2013)
Changes are numbered by the printed parent chain. Names may count otherwise.

What was measured:
[1] = target: T1, Photobacterium phosphoreum strain JT-ISH-467 β-galactoside-α2,3-sialyltransferase N2C0 variant F318AE319A (ISH467-N2C0-F318AE319A); Phe318 and Glu319 of SEQ ID N (Photobacterium phosphoreum, UniProt A5LHX0, E342A/F341A); test: Sialyltransferase kinetics for lactose and CMP-sialic acid, F318A E319A variant enzyme; type: biochemical; conditions: not containing His×6-Tag
T1 sequence (A5LHX0 with tags, fused parts or gaps F341A/E342A): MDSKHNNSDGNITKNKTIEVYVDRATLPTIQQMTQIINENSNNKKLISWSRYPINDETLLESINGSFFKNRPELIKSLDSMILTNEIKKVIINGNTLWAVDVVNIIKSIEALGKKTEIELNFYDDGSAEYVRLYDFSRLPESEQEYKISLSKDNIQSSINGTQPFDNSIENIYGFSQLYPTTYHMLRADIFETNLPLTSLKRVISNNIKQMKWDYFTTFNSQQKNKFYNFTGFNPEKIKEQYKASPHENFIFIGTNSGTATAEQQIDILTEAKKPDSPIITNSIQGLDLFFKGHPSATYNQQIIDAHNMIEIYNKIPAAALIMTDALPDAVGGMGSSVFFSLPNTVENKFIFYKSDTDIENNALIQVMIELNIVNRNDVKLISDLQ
Experimental: The β-galactoside-α2,3-sialyltransferase activities of variant-type N2C0 proteins (four variants: F318A, E319A, F318AE319A, and S337A) each containing His×6-Tag purified in Example 1 (2) were measured. The sialyltransferase activity was measured by the method as described in J. Biochem., 120, 104-110, (1996) (hereby incorporated by reference in its entirety). […] The enzyme reaction was performed at 30° C. for 5 minutes. After the completion of the reaction, 1.97 mL of 5 mM phosphate buffer (pH 6.8) was added to the reaction solution, which was then applied to a Dowex 1×8 (PO4^3− form, 0.2×2 cm, manufactured by Bio-Rad Laboratories, Inc.) column. The reaction product contained in the eluate (0 to 2 mL) from this column, i.e., the radioactivity contained in sialyllactose was measured to calculate the enzyme activity. One enzyme unit (1 U) is defined as the amount of the enzyme required to release one micromole of sialic acid per minute.

[2] = target: T2, Photobacterium phosphoreum strain JT-ISH-467 β-galactoside-α2,3-sialyltransferase N2C0 (ISH467-N2C0), wild type, SEQ ID NO: 2, not containing His×6-Tag (Photobacterium phosphoreum, UniProt A5LHX0); test: Sialyltransferase kinetics for lactose and CMP-sialic acid, wild-type N2C0 enzyme; type: biochemical
T2 sequence (A5LHX0 with tags, fused parts or gaps): T1 sequence (A5LHX0 with tags, fused parts or gaps F341A/E342A) with A318F, A319E

[3] = substrate: OC[C@H]1O[C@@H](O[C@H]2[C@H](O)[C@@H](O)C(O)O[C@@H]2CO)[C@H](O)[C@@H](O)[C@H]1O; test: purified protein, by the assay type; conditions: not containing His×6-Tag, 30.0 °C
[4] = substrate: CC(=O)N[C@H]1[C@H]([C@H](O)[C@H](O)CO)O[C@](OP(=O)(O)OC[C@H]2O[C@@H](n3ccc(N)nc3=O)[C@H](O)[C@@H]2O)(C(=O)O)C[C@@H]1O; test: purified protein, by the assay type; conditions: not containing His×6-Tag, 30.0 °C
[5] = substrate: OC[C@H]1O[C@@H](O[C@H]2[C@H](O)[C@@H](O)C(O)O[C@@H]2CO)[C@H](O)[C@@H](O)[C@H]1O; test: purified protein, by the assay type; type: biochemical, Photobacterium phosphoreum strain JT-ISH-467; conditions: other: E319A variant enzyme, not containing His×6-Tag; 30.0 °C
Experimental: (§1) The sialyltransferase activity was measured by the method as described in J. Biochem., 120, 104-110, (1996) (hereby incorporated by reference in its entirety). […] The enzyme reaction was performed at 30° C. for 5 minutes. After the completion of the reaction, 1.97 mL of 5 mM phosphate buffer (pH 6.8) was added to the reaction solution, which was then applied to a Dowex 1×8 (PO4^3− form, 0.2×2 cm, manufactured by Bio-Rad Laboratories, Inc.) column. […] One enzyme unit (1 U) is defined as the amount of the enzyme required to release one micromole of sialic acid per minute.

[6] = substrate: CC(=O)N[C@H]1[C@H]([C@H](O)[C@H](O)CO)O[C@](OP(=O)(O)OC[C@H]2O[C@@H](n3ccc(N)nc3=O)[C@H](O)[C@@H]2O)(C(=O)O)C[C@@H]1O; test: purified protein, by the assay type; type: biochemical, Photobacterium phosphoreum strain JT-ISH-467; conditions: other: E319A variant enzyme, not containing His×6-Tag; 30.0 °C
Experimental: as §1

[7] = other: wild-type N2C0 enzyme, pH 6.8
[8] = other: F318A E319A variant enzyme

OC[C@H]1O[C@@H](O[C@H]2[C@H](O)[C@@H](O)C(O)O[C@@H]2CO)[C@H](O)[C@@H](O)[C@H]1O (stereo partly drawn) [Lactose, lactose]
Vmax [1]: 7.2 nmol/min | kcat [1]: 10.8 s⁻¹ | Vmax [2]: 3.9 nmol/min | kcat [2]: 11.2 s⁻¹

CC(=O)N[C@H]1[C@H]([C@H](O)[C@H](O)CO)O[C@](OP(=O)(O)OC[C@H]2O[C@@H](n3ccc(N)nc3=O)[C@H](O)[C@@H]2O)(C(=O)O)C[C@@H]1O [CMP-sialic acid, cytidine monophosphate (CMP)-sialic acid]
Vmax [1]: 8.9 nmol/min | kcat [1]: 13.3 s⁻¹ | Vmax [2]: 7.3 nmol/min | kcat [2]: 21.0 s⁻¹

B1: Photobacterium phosphoreum strain JT-ISH-467 β-galactoside-α2,3-sialyltransferase N2C0 (ISH467-N2C0), wild type, SEQ ID NO: 2, not containing His×6-Tag … (protein)
chain: T1 sequence (A5LHX0 with tags, fused parts or gaps F341A/E342A) with A318F, A319E
Km [3, 7]: 8.4 mM | Km [4, 7]: 0.72 mM

B2: Photobacterium phosphoreum strain JT-ISH-467 β-galactoside-α2,3-sialyltransferase N2C0 variant F318AE319A (ISH467-N2C0-F318AE319A; Phe318 and Glu319 of SEQ ID … (protein)
chain: T1 sequence (A5LHX0 with tags, fused parts or gaps F341A/E342A)
Km [3, 8]: 85 mM | Km [4, 8]: 1.59 mM

B3: Photobacterium phosphoreum strain JT-ISH-467 β-galactoside-α2,3-sialyltransferase N2C0 variant E319A (ISH467-N2C0-E319A; Glu319 of SEQ ID NO: 2 replaced with … (protein)
chain: T1 sequence (A5LHX0 with tags, fused parts or gaps F341A/E342A) with A318F
Km [5]: 22 mM | Vmax [5]: 0.012 µmol/min | kcat [5]: 99.7 s⁻¹ | Km [6]: 0.53 mM | Vmax [6]: 3.2 nmol/min | kcat [6]: 106.3 s⁻¹
